In patent US20030050434A1:

Target: polyclonal rabbit antiserum raised against synthetic rat preptin conjugated to ovalbumin
Assay: competitive radioimmunoassay, [125I]preptin tracer, antiserum 1:10,000, PEG-assisted second antibody separation

- EC20: 0.344 nM
- EC80: 0.039 nM
- minimum detectable concentration: 11.2 pM
Binder: DVSTSQAVLPDDFPRYPVGKFFKFDTWRQSAGRL [synthetic rat preptin]
